Results: paper PMC3940198

Target: Burkholderia cenocepacia cytosolic carboxypeptidase (BcCCP) (Burkholderia cenocepacia J2315)
Test: SEC-MALS; Superdex 200 10/300, 50 mM Tris-HCl, 250 mM NaCl pH 7.5; Wyatt miniDAWN TREOS and Optilab T-rEX detectors

## Burkholderia cenocepacia cytosolic carboxypeptidase (BcCCP) (enzyme)
  stoichiometry N: 4
